Eleven variants from FireProtDB (doi:10.1006/jmbi.1995.0616) can be followed below.

To fix the notation:
B1: Subtilisin-chymotrypsin inhibitor-2A, P01053 (parent)
chain: MSSVEKKPEGVNTGAGDRHNLKTEWPELVGKSVEEAKKVILQDKPEAQIIVLPVGTIVTMEYRIDRVRLFVDKLDNIAQVPRVG

Variants of B1 are the subject of the data set. The following applies: Hordeum vulgare; pH 6.25; 25 °C; GdnHCl; Fluorescence; MES 50 mM; reversible: yes; structure 2CI2; whole UniProt chain shown.

Turning to MSSVEKKPEGVNTGAGDRHNLKTEWPELVGKSVEEAKKVILQDKPEAQIIVLPVGTIVTMEYAIARVRLFVDKLDNIAQVPRVG, the “ddG of mutation (higher = less stable)” value was 2.46 kcal/mol, the denaturant m value stood at 1.53 kcal/mol/M, the “denaturant midpoint (higher = more stable)” value (from here on “denaturant midpoint”) amounted to 3.37 M and the unfolding free energy amounted to 5.14 kcal/mol.

As to MSSVEKKPEGVNTGAGDRHNLKTEWPELVGKSVEEAKKVILQDKPEAQIIVLPVGTIVTMEYRIDRVRLFVDKLDNIAQVARVG, the “ddG of mutation (higher = less stable)” value turned out to be 3.5 kcal/mol, the denaturant m value amounted to 1.8 kcal/mol/M, the “denaturant midpoint” value was determined as 2.28 M and the unfolding free energy is 4.1 kcal/mol.

Turning to MSSVEKKPEGVNTGAGDRHNLKTEWPELVGKSVEEAKKVILQDKPEAQIIVLPVGTIVTMEYRIARVRLFVDKLDNIAQVPRVG, the “ddG of mutation (higher = less stable)” value was found to be 1.02 kcal/mol, the denaturant m value came out at 1.83 kcal/mol/M, the “denaturant midpoint” value was determined as 3.59 M and the unfolding free energy amounted to 6.58 kcal/mol.

As for MSSVEKKPEGVNTGAGDRHNLKTEWPELVGKSVEEAKKVILQDKPEAQIIVLPVGTIVTMAYRIDRVRLFVDKLDNIAQVPRVG, the “ddG of mutation (higher = less stable)” value turned out to be 1.12 kcal/mol, the denaturant m value is 1.78 kcal/mol/M, the “denaturant midpoint” value was 3.64 M and the unfolding free energy came to 6.48 kcal/mol.

As for MSSVEKKPEGVNTGAGDRHNLKTEWPELVGKSVEEAKKVILQDKPEAQIIVLPVGTIVTMEYRIDRVRLFVDNLDNIAQVPRVG, the “ddG of mutation (higher = less stable)” value came to 1.21 kcal/mol, the denaturant m value was found to be 1.6 kcal/mol/M, the “denaturant midpoint” value stood at 4 M and the unfolding free energy came out at 6.39 kcal/mol.

As to MSSVEKKPEGVNTGAGDRHNLKTEWPELVGKSVEEAKKVILQDKPEAQIIVLPVGTIVTMEYRIDRVRLFVAKLDNIAQVPRVG, the “ddG of mutation (higher = less stable)” value worked out at 3.14 kcal/mol, the denaturant m value worked out at 1.99 kcal/mol/M, the “denaturant midpoint” value is 2.24 M and the unfolding free energy was determined as 4.46 kcal/mol.

Regarding MSSVEKKPEGVNTGAGDRHNLKTEWPELVGKSVEEAKKVILQDKPEAQIIVLPVGTIVTMEYAIDRVRLFVDKLDNIAQVPRVG, the “ddG of mutation (higher = less stable)” value was 1.02 kcal/mol, the denaturant m value was 1.78 kcal/mol/M, the “denaturant midpoint” value came to 3.7 M and the unfolding free energy amounted to 6.58 kcal/mol.

In the case of MSSVEKKPEGVNTGAGDRHNLKTEWAELVGKSVEEAKKVILQDKPEAQIIVLPVGTIVTMEYRIDRVRLFVDKLDNIAQVPRVG, the denaturant m value came out at 3.46 kcal/mol/M and the “denaturant midpoint” value stood at 3.19 M.

MSSVEKKPEGVNTGAGDRHNLKTEWPELVGKSVEEAKKVILQDKPEAQIIVLPVGTIVTMEYRIDRVRLVVDKLDNIAQVPRVG: the “ddG of mutation (higher = less stable)” value was found to be 1.41 kcal/mol, the denaturant m value was 2.24 kcal/mol/M, the “denaturant midpoint” value was determined as 2.77 M and the unfolding free energy was 6.19 kcal/mol.

Consider MSSVEKKPEGVNTGAGDRHNLKTEWPELVGKSVEEAKKVILQDKPEAQIIVLPVGTIVTMEYRIDRVRLAVDKLDNIAQVPRVG, for which the “ddG of mutation (higher = less stable)” value turned out to be 3.21 kcal/mol, the denaturant m value turned out to be 2.17 kcal/mol/M, the “denaturant midpoint” value stood at 2.02 M and the unfolding free energy came to 4.39 kcal/mol.

Consider MSSVEKKPEGVNTGAGDRHNLKTEWPELVGKSVEEAKKVILQDKPEAQIIVLPVGTIVTMEYRIDRVRLLVDKLDNIAQVPRVG, for which the “ddG of mutation (higher = less stable)” value is 1.92 kcal/mol, the denaturant m value turned out to be 1.95 kcal/mol/M, the “denaturant midpoint” value is 2.91 M and the unfolding free energy turned out to be 5.68 kcal/mol.
